From patent US20240209076A1 (KODIAK SCIENCES, published 2024)

How the values were obtained:
recombinant human IL-6 [1] = biological target: T1, recombinant human IL-6 (human, UniProt P05231 30-212); assay: SPR (Biacore), supernatant IgG on Protein A, 25 C
T1 construct: Flowed in solution over the captured antibodies
T1 sequence (P05231 30-212 limits assumed): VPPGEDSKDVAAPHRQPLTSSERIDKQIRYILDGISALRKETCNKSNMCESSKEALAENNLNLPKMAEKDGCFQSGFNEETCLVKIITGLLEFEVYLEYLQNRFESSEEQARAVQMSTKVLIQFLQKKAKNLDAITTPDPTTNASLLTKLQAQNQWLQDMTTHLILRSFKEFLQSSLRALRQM

recombinant human IL-6 [2] = biological target: T1, recombinant human IL-6; assay: SPR (Biacore), purified IgG on Protein A, 37 C
Experimental: (§1) Antibodies were captured on a Protein A chip (GE) by injecting 1:20 dilution of cell supernatant at 10 μL/min for 60 seconds. […] The sensor chip was regenerated by a 60 seconds injection of 10 mM Glycine pH 1.7 at flow rate of 50 μL/min. […] For this setup, 1 μg/mL of purified antibody was injected over a Protein A chip at 10 μL/min for 25-28 seconds. Data analysis for supernatant and purified samples were performed using BIAevaluation software (GE). All sensorgrams were double reference subtracted and fit using a 1:1 Langmuir binding model.

recombinant human IL-6 [3] = biological target: T2, recombinant human IL-6 (human, UniProt P05231 30-212); assay: SPR Biacore, supernatant Ab on Protein A chip, IL-6 analyte, 25 C
T2 construct: Bought protein
Experimental: as §1
T2 sequence (P05231 30-212 limits assumed): as above

Binder	Kd (recombinant human IL-6 [1]) [nM]	koff (recombinant human IL-6 [1]) [s⁻¹]	kon (recombinant human IL-6 [1]) [M⁻¹ s⁻¹]	Kd (recombinant human IL-6 [2]) [nM]	koff (recombinant human IL-6 [2]) [s⁻¹]	kon (recombinant human IL-6 [2]) [M⁻¹ s⁻¹]	Kd (recombinant human IL-6 [3]) [nM]	koff (recombinant human IL-6 [3]) [s⁻¹]	kon (recombinant human IL-6 [3]) [M⁻¹ s⁻¹]
anti-IL-6 antibody, parent sequence (heavy chain WT, light chain WT) (antibody, V domains shown, Tested as full antibody from Expi293 cells in an engineered human IgG1 framework (L234A, L235A, G237A, L443C, EU); also called wild-type; parent molecule) VH: EVQLVESGGGLVQPGGSLRLSCAASGFTFSPFAMSWVRQAPGKGLEWVAKISPGGSWTYYSDTVTGRFTFSLDTSKSTAYLQMNSLRAEDTAVYYCARQLWGYYALDIWGQGTLVTVSS VL: DIQLTQSPSSLSASVGDRVTITCSASISVSYMYWYQQKPGKAPKLLIYDMSNLASGVPSRFSGSGSGTDFTLTISSLQPEDFATYYCMQWSGYPYTFGQGTKVEIK	0.399	0.000126	315000	0.158	0.000139	880000	–	–	–
anti-IL-6 antibody, heavy chain D62Q, light chain WT (antibody, IgG1, V domains shown, Full IgG1 tested; V domains derived as in m2) VH: EVQLVESGGGLVQPGGSLRLSCAASGFTFSPFAMSWVRQAPGKGLEWVAKISPGGSWTYYSQTVTGRFTFSLDTSKSTAYLQMNSLRAEDTAVYYCARQLWGYYALDIWGQGTLVTVSS VL: DIQLTQSPSSLSASVGDRVTITCSASISVSYMYWYQQKPGKAPKLLIYDMSNLASGVPSRFSGSGSGTDFTLTISSLQPEDFATYYCMQWSGYPYTFGQGTKVEIK	0.366	0.000148	403000	0.687	0.000601	875000	–	–	–
anti-IL-6 antibody, light chain V29L (heavy chain WT) (antibody, V domains shown, See note of m2; also called WT / V29L) VH: EVQLVESGGGLVQPGGSLRLSCAASGFTFSPFAMSWVRQAPGKGLEWVAKISPGGSWTYYSDTVTGRFTFSLDTSKSTAYLQMNSLRAEDTAVYYCARQLWGYYALDIWGQGTLVTVSS VL: DIQLTQSPSSLSASVGDRVTITCSASISLSYMYWYQQKPGKAPKLLIYDMSNLASGVPSRFSGSGSGTDFTLTISSLQPEDFATYYCMQWSGYPYTFGQGTKVEIK	–	–	–	–	–	–	0.487	0.000171	351000
anti-IL-6 antibody, heavy chain F29H, light chain WT (antibody, IgG1, V domains shown, Full IgG1 tested; V domains derived as in m2) VH: EVQLVESGGGLVQPGGSLRLSCAASGFTHSPFAMSWVRQAPGKGLEWVAKISPGGSWTYYSDTVTGRFTFSLDTSKSTAYLQMNSLRAEDTAVYYCARQLWGYYALDIWGQGTLVTVSS VL: DIQLTQSPSSLSASVGDRVTITCSASISVSYMYWYQQKPGKAPKLLIYDMSNLASGVPSRFSGSGSGTDFTLTISSLQPEDFATYYCMQWSGYPYTFGQGTKVEIK	0.273	0.000135	495000	0.466	0.000397	850000	–	–	–
anti-IL-6 antibody, light chain Y95I (heavy chain WT) (antibody, V domains shown, See note of m2; also called WT / Y95I) VH: EVQLVESGGGLVQPGGSLRLSCAASGFTFSPFAMSWVRQAPGKGLEWVAKISPGGSWTYYSDTVTGRFTFSLDTSKSTAYLQMNSLRAEDTAVYYCARQLWGYYALDIWGQGTLVTVSS VL: DIQLTQSPSSLSASVGDRVTITCSASISVSYMYWYQQKPGKAPKLLIYDMSNLASGVPSRFSGSGSGTDFTLTISSLQPEDFATYYCMQWSGYPITFGQGTKVEIK	–	–	–	–	–	–	7.48	0.00444	593000
anti-IL-6 antibody, light chain S51K (heavy chain WT) (antibody, V domains shown, See note of m2; also called WT / S51K) VH: EVQLVESGGGLVQPGGSLRLSCAASGFTFSPFAMSWVRQAPGKGLEWVAKISPGGSWTYYSDTVTGRFTFSLDTSKSTAYLQMNSLRAEDTAVYYCARQLWGYYALDIWGQGTLVTVSS VL: DIQLTQSPSSLSASVGDRVTITCSASISVSYMYWYQQKPGKAPKLLIYDMKNLASGVPSRFSGSGSGTDFTLTISSLQPEDFATYYCMQWSGYPYTFGQGTKVEIK	–	–	–	–	–	–	0.535	0.000212	396000
anti-IL-6 antibody, heavy chain D107E, light chain WT (antibody, IgG1, V domains shown, Full IgG1 tested; V domains derived as in m2) VH: EVQLVESGGGLVQPGGSLRLSCAASGFTFSPFAMSWVRQAPGKGLEWVAKISPGGSWTYYSDTVTGRFTFSLDTSKSTAYLQMNSLRAEDTAVYYCARQLWGYYALEIWGQGTLVTVSS VL: DIQLTQSPSSLSASVGDRVTITCSASISVSYMYWYQQKPGKAPKLLIYDMSNLASGVPSRFSGSGSGTDFTLTISSLQPEDFATYYCMQWSGYPYTFGQGTKVEIK	0.29	0.000147	509000	0.527	0.000402	762000	–	–	–
anti-IL-6 antibody, light chain Y31G (heavy chain WT) (antibody, V domains shown, See note of m2; also called WT / Y31G) VH: EVQLVESGGGLVQPGGSLRLSCAASGFTFSPFAMSWVRQAPGKGLEWVAKISPGGSWTYYSDTVTGRFTFSLDTSKSTAYLQMNSLRAEDTAVYYCARQLWGYYALDIWGQGTLVTVSS VL: DIQLTQSPSSLSASVGDRVTITCSASISVSGMYWYQQKPGKAPKLLIYDMSNLASGVPSRFSGSGSGTDFTLTISSLQPEDFATYYCMQWSGYPYTFGQGTKVEIK	–	–	–	–	–	–	0.666	0.000203	305000

Further lines, results first:

Kd (recombinant human IL-6 [1]) [nM]	koff (recombinant human IL-6 [1]) [s⁻¹]	kon (recombinant human IL-6 [1]) [M⁻¹ s⁻¹]	Kd (recombinant human IL-6 [2]) [nM]	koff (recombinant human IL-6 [2]) [s⁻¹]	kon (recombinant human IL-6 [2]) [M⁻¹ s⁻¹]	Kd (recombinant human IL-6 [3]) [nM]	koff (recombinant human IL-6 [3]) [s⁻¹]	kon (recombinant human IL-6 [3]) [M⁻¹ s⁻¹]	Binder
–	–	–	–	–	–	0.356	0.000123	345000	anti-IL-6 antibody, light chain Y48W (heavy chain WT) (antibody, V domains shown, See note of m2; also called WT / Y48W) VH: EVQLVESGGGLVQPGGSLRLSCAASGFTFSPFAMSWVRQAPGKGLEWVAKISPGGSWTYYSDTVTGRFTFSLDTSKSTAYLQMNSLRAEDTAVYYCARQLWGYYALDIWGQGTLVTVSS VL: DIQLTQSPSSLSASVGDRVTITCSASISVSYMYWYQQKPGKAPKLLIWDMSNLASGVPSRFSGSGSGTDFTLTISSLQPEDFATYYCMQWSGYPYTFGQGTKVEIK
–	–	–	–	–	–	0.329	0.00022	668000	anti-IL-6 antibody, light chain S55L (heavy chain WT) (antibody, V domains shown, See note of m2; also called WT / S55L) VH: EVQLVESGGGLVQPGGSLRLSCAASGFTFSPFAMSWVRQAPGKGLEWVAKISPGGSWTYYSDTVTGRFTFSLDTSKSTAYLQMNSLRAEDTAVYYCARQLWGYYALDIWGQGTLVTVSS VL: DIQLTQSPSSLSASVGDRVTITCSASISVSYMYWYQQKPGKAPKLLIYDMSNLALGVPSRFSGSGSGTDFTLTISSLQPEDFATYYCMQWSGYPYTFGQGTKVEIK
–	–	–	–	–	–	0.296	0.000216	729000	anti-IL-6 antibody, light chain S51D (heavy chain WT) (antibody, V domains shown, See note of m2; also called WT / S51D) VH: EVQLVESGGGLVQPGGSLRLSCAASGFTFSPFAMSWVRQAPGKGLEWVAKISPGGSWTYYSDTVTGRFTFSLDTSKSTAYLQMNSLRAEDTAVYYCARQLWGYYALDIWGQGTLVTVSS VL: DIQLTQSPSSLSASVGDRVTITCSASISVSYMYWYQQKPGKAPKLLIYDMDNLASGVPSRFSGSGSGTDFTLTISSLQPEDFATYYCMQWSGYPYTFGQGTKVEIK
–	–	–	–	–	–	0.461	0.000201	436000	anti-IL-6 antibody, light chain S55Y (heavy chain WT) (antibody, V domains shown, See note of m2; also called WT / S55Y) VH: EVQLVESGGGLVQPGGSLRLSCAASGFTFSPFAMSWVRQAPGKGLEWVAKISPGGSWTYYSDTVTGRFTFSLDTSKSTAYLQMNSLRAEDTAVYYCARQLWGYYALDIWGQGTLVTVSS VL: DIQLTQSPSSLSASVGDRVTITCSASISVSYMYWYQQKPGKAPKLLIYDMSNLAYGVPSRFSGSGSGTDFTLTISSLQPEDFATYYCMQWSGYPYTFGQGTKVEIK
–	–	–	–	–	–	0.463	0.000231	499000	anti-IL-6 antibody, light chain S51R (heavy chain WT) (antibody, V domains shown, See note of m2; also called WT / S51R) VH: EVQLVESGGGLVQPGGSLRLSCAASGFTFSPFAMSWVRQAPGKGLEWVAKISPGGSWTYYSDTVTGRFTFSLDTSKSTAYLQMNSLRAEDTAVYYCARQLWGYYALDIWGQGTLVTVSS VL: DIQLTQSPSSLSASVGDRVTITCSASISVSYMYWYQQKPGKAPKLLIYDMRNLASGVPSRFSGSGSGTDFTLTISSLQPEDFATYYCMQWSGYPYTFGQGTKVEIK
–	–	–	–	–	–	0.472	0.000138	292000	anti-IL-6 antibody, light chain Y31F (heavy chain WT) (antibody, V domains shown, See note of m2; also called WT / Y31F) VH: EVQLVESGGGLVQPGGSLRLSCAASGFTFSPFAMSWVRQAPGKGLEWVAKISPGGSWTYYSDTVTGRFTFSLDTSKSTAYLQMNSLRAEDTAVYYCARQLWGYYALDIWGQGTLVTVSS VL: DIQLTQSPSSLSASVGDRVTITCSASISVSFMYWYQQKPGKAPKLLIYDMSNLASGVPSRFSGSGSGTDFTLTISSLQPEDFATYYCMQWSGYPYTFGQGTKVEIK
–	–	–	–	–	–	0.401	0.000226	563000	anti-IL-6 antibody, light chain S55W (heavy chain WT) (antibody, V domains shown, See note of m2; also called WT / S55W) VH: EVQLVESGGGLVQPGGSLRLSCAASGFTFSPFAMSWVRQAPGKGLEWVAKISPGGSWTYYSDTVTGRFTFSLDTSKSTAYLQMNSLRAEDTAVYYCARQLWGYYALDIWGQGTLVTVSS VL: DIQLTQSPSSLSASVGDRVTITCSASISVSYMYWYQQKPGKAPKLLIYDMSNLAWGVPSRFSGSGSGTDFTLTISSLQPEDFATYYCMQWSGYPYTFGQGTKVEIK
–	–	–	–	–	–	0.407	0.000139	341000	anti-IL-6 antibody, light chain S91A (heavy chain WT) (antibody, V domains shown, See note of m2; also called WT / S91A) VH: EVQLVESGGGLVQPGGSLRLSCAASGFTFSPFAMSWVRQAPGKGLEWVAKISPGGSWTYYSDTVTGRFTFSLDTSKSTAYLQMNSLRAEDTAVYYCARQLWGYYALDIWGQGTLVTVSS VL: DIQLTQSPSSLSASVGDRVTITCSASISVSYMYWYQQKPGKAPKLLIYDMSNLASGVPSRFSGSGSGTDFTLTISSLQPEDFATYYCMQWAGYPYTFGQGTKVEIK
–	–	–	–	–	–	0.383	0.000338	882000	anti-IL-6 antibody, light chain Y95G (heavy chain WT) (antibody, V domains shown, See note of m2; also called WT / Y95G) VH: EVQLVESGGGLVQPGGSLRLSCAASGFTFSPFAMSWVRQAPGKGLEWVAKISPGGSWTYYSDTVTGRFTFSLDTSKSTAYLQMNSLRAEDTAVYYCARQLWGYYALDIWGQGTLVTVSS VL: DIQLTQSPSSLSASVGDRVTITCSASISVSYMYWYQQKPGKAPKLLIYDMSNLASGVPSRFSGSGSGTDFTLTISSLQPEDFATYYCMQWSGYPGTFGQGTKVEIK
–	–	–	–	–	–	0.109	0.000107	987000	anti-IL-6 antibody, light chain S55R (heavy chain WT) (antibody, V domains shown, See note of m2; also called WT / S55R) VH: EVQLVESGGGLVQPGGSLRLSCAASGFTFSPFAMSWVRQAPGKGLEWVAKISPGGSWTYYSDTVTGRFTFSLDTSKSTAYLQMNSLRAEDTAVYYCARQLWGYYALDIWGQGTLVTVSS VL: DIQLTQSPSSLSASVGDRVTITCSASISVSYMYWYQQKPGKAPKLLIYDMSNLARGVPSRFSGSGSGTDFTLTISSLQPEDFATYYCMQWSGYPYTFGQGTKVEIK
